Data reported in publication PMC7082840 (Developmental cell, 2019).

Molecular target: the molecule itself
Assay: native gel or EMSA

B1: NEUROG3^S183A (natural protein, human, UniProt Q9Y4Z2 1-214, looked up)
chain: MTPQPSGAPTVQVTRETERSFPRASEDEVTCPTSAPPSPTRTRGNCAEAEEGGCRGAPRKLRARRGGRSRPKSELALSKQRRSRRKKANDRERNRMHNLNSALDALRGVLPTFPDDAKLTKIETLRFAHNYIWALTQTLRIADHSLYALEPPAPHCGELGSPGGSPGDWGSLYSPVSQAGSLAPAASLEERPGLLGATFSACLSPGSLAFSDFL
  binding result: binds
